Test: label from the status in PepcDB records

Sequence: MIKETVFKSFDTPAALEQQLANKIASQLQEAVDARGKASLVVSGGSTPLKLFELLSMKSIDWSDVYITLADERWVDVEDSASNERLVREHLLQNRAANAKFRGLKNMFSTAEAGADMTCESLSNFPRPFDVVVLGMGNDGHTCSWFPCSAELNDALTTQALCVATNPTTAPHGRITLSKNAILNSRQIYLHLVGEQKLSVYRQALENDDVNAMPIRAVLAQRKTPVDVFWSA
- protein production: failed

Sequence: MIKPTPVAGTSLDRVDGVAKVTGQARYAGEYPEVGLLHGSVVSSTIARGRVLNIDSTQAMRVPGVIAVLDHGHRPHISSYDDDYSDADAAQGAPFRPLFDDRVLYNGQPLALVVAQTLELARYAGSLIRIEYAEEAHQTDLGACQQSHAAPAETPPPRGDFAAQFARAPVQVDATYLTANEYHNPMEPHASTVLYKGDGTLEIHDKTQGTQNCQDYLHKVFGLPKANIRVRAAFVGGAFGSGLRPQYQLPLAVMAALHLQRSVRVTLTRQQMFTFGYRPRTEQRLRLGADANGQLLAIAHDALGQTSRFEDFTEHVVEWSGMLYQCDNVALSYRLASLDVYTPLDMRAPGAASGMIALECAMDELACAAQIDPLDLRRRNFAASNANEGKPYSSKELLTCYRQGAERFGWQNRNPQPRSMRHGNQLVGWGMAGGVWEAMQMKASAKARFDAQGHLTVSSATTDIGTGTYTVMTQIAADAAGARVQDVTFVLGDSSLPTAPLQGGSFTVSSVGSAVRQACQVLRTKVLEHARRMYPQVASTAREQIIFADGYLHAGSHRLALADIIASAPEGEFEVQIDAEPGARRQPFSTATHSAVFAEVHVDEDLGTIKVVRVVSAVAAGRVINPKTARSQILGGVVWGVGMALHEAALTDHRLGRIVNHNLAEYHIPVNADSGDIEVIFVEEHDDIVNELGSKGVGEIGVVGVAAAVANAVYHATGKRVREFPITLDKLLKDNSQV
- protein production: failed

Sequence: MIKRILTVLLLFPTLVCAQINTERVMTIARNALYFEDYVLSIQYFNQVINAKPYLYEPYFFRALAKVNLEDYQGAEADCDEAIKRNPFVVGAYQVRGLARIRQSKFDGAIEDYQKALHYDPENITLWHNLTLSHIQKKDYDAAKEDLESLLKVSPRYTRAYLMRGEVSLQQKDTVAALKDFNTALELDKYDPDAWSARAIVRLQQSNYAEAESDLDRAIHLSAKNAGNYINRALARFHQNNLRGAMSDYDLALDIDPNNFIGHYNRGLLRARVGDDNRAIEDFDFVIQMEPDNMMAIFNRALLRAQTGDYRGAIKDYTTVINQYPNFLAGYYHRAEARKKIGDKKGAEQDDFKLLKAQLDKQNGGTNKDVAQNQNKDKENQSGENGDESEEGKTRKKSDKNMNNYRKIVIADDSEADQRYTSDYRGRVQDKNVNIKLEPMFALTYYEKSSEVKRSVNFHKFIEDLNLSNVLPKRIRITNMEAPLTEEQVKFHFALIDAHTSAIVDDDKSAPKRFARAIDFYLVQDFSSAVADLTQAILLDGDFFPAYFMRALIRCKQLEYQKAEQAAEADMPSGAAVKEVSAVDYEVVRKDLDKVITLAPDFVYAYYNRANVAAMLKDYRAAIVDYDKAIQLSPDFADAYFNRGLTHIFLGNNKAGISDLSKAGELGVVSAYNVIKRFTDQTE
- protein production: failed

Sequence: MIKYLIVMLIPFVIVYLLMPKFIEFANEKGFVDKPTGRKKHDKLTPLIGGVVMYIGFFATYLFGIDSTRQLSQTFIIFIASTLVIIIGVIDDYYKGKGKEFPIYPRVIIQILAATMVFKAGIVFRGITNPFTGEFTQFSGWIQYILTITWIFGVTTVINWSDGMDGLAGSISIISAMTMFVVALAKGQFNSAYMSITLVGSILAFLRYNRHPARVFMGDSGANFLGFILAIIALEGAFKQATALSILVPVLALGVPIFDNIFVIFRRFQSGKPVYEADRSQIHYRLQERGMSVKQIVSYICILSGCLSLVSLLIIMIIL
- protein production: failed

Sequence: MILAILQARMSSTRLPGKVLMPLQRQPMIVRQIERVARSKRIDKLVVATSDRPEDDAIEAAVRREGIAVFRGSLDNVQQRFIGALDAHPADHVVRLTADCPLADPTLIDATIDLCLSKGADYVSNTPEGHAHPKGTDVEVMTAAALRRAAAEATTKEAFEHVTWDLWNQPQRWTCAWLPCFPDQGAVRWTVDRPDDYAFVAAVYDALYPANRAFTSDDIRAFVAGRPDLQDYGGDRRALEHHHHHH
- protein production: failed

Sequence: MILFADYNTPYLFAISFVLLIGLLEIFALICGHMLSGALDAHLDHYDSITTGHISQALHYLNIGRLPALVVLCLLAGFFGLIGILLQHACIMVWQSPLSNLFVVPVSLLFTIIAVHYTGKIVAPWIPRDHSSAITEEEYIGSMALITGHQATSGNPCEGKLTDQFGQIHYLLLEPEEGKIFTKGDKVLIICRLSATRYLAENNPWPQIL
- protein production: failed

Sequence: MILIKKFATVASGTLMSRIFGFVREMLMAAALGTGPVSDAFNAAFRFPNTFRRFFAEGAFNAAFVPLFAKRITEDGQETACKFAEEVFGVLFSLLLLLTIAMELSMPFLVRTIIAPGFAEDATKFNATIHFTAIMFPYLTCMSLAAMMGGMLNALRRYFIAAIAPLFLNIILISVLAYAWIYQLDTWHIGLNLSWGVLAAGLLQLTLIAAALRQSGMKIFLRRPRFSSNVRKLLTLAFPAAITGGITQINLLINTNIASSQSGAVSSLMYADRLYQLPLGVIAIAIATVLLPELTRALRSKNHKETHNLQNRSIELTLLLTLPASVAFLILSTPIVSLLFERGQFTSLSTHYVAQLLKLYGLGLPAFVLIKIFIPNFFAHEDTKTPMIITGICVFINISLALILFPILSARGIVIAEITSGWMNALLLWTILIQRGYWKYDIQLIKRITCLIITTLLNTIALYYVFDVIDFLSFPLSSQASFFLRASTLAGIMVAILLVHCFAYFLLDTRSFFLTLKNFKKRL
- protein production: failed

Sequence: MILKTKLFGKVYQFTSVKEVLAKANEEKSGDKLAGVAANSAEERVAAKVVLSELSLNDLFNNPVVDYDEDEVTRIIIDQVNMRIFESIKHWTVAELREFILSSETTDFDIKRISRGLTSEMIAAVCKLMSNMDLIVGAKKINIEKTANTTIGRPGTFSNRLQPNHPTDNVDGIMASVMEGLSYGAGDALIGLNPVDDSTESVKRILNKFEEFRSEWEIPTQTCVLAHVTTQMEAMRQGAPTGLVFQSIAGSEKGNTAFGLNAEILAEAQDLALHSGQAAGPNVMYFETGQGSELSSEANFGADQVTMEARCYGLAKKFDPYIVNTVVGFIGPEYLYDSKQVIRAGLEDHFMGKLTGISMGCDVCYTNHMKADQNDMENLAMLLATAGCTYIMGIPHGDDVMLNYQTTGFHETATIRETLGLRPIKEFEEWMEKMGLMENGKLTSRAGDASVFIK
- protein production: not failed

Sequence: MILNLDTNIFNHGLSRHNILAFSQGFPIGLPCRNWIEVGLRLRLRLLLELAVGNFPQGFKIHLSGSFQAVRLALFSSFTSLRTDELLLIETRPSYLSSVQVWGKGRPLLLLLTKREQPALQANREPPARFESLRAGKQEEADRAKASPLLASALPEAVEVGTRSRRSRGSSCGFRVKLAHCQKANRSSYLDQRTLIPGRQQGLRVEGMNQVSWLRIGGMGVRSVPSSPSPRLRLLETGDRVFLRRLAASPFNKGFQWQQTAPQDEAKNGVGGLPVVRASKWLAGPRKHNERDDRSSTRPEIDVLLP
- protein production: failed

Sequence: MILNRQTVALMTAGLLAFNSCSLKQMVKMAKDQELTVTPSPLEVHGDSVAFDISATLPVKMLKKNKIYSVSTFYKSGDNKVELGSFDFVSTDYPDAKTTAPQIKKHQAFAYKPEIGNGDLLAVGTASNLDKTKTKSTEEFPIAKGLITTSRLVKDYSYVAYADHGYNNKEELIASTVNFYFEQGKSVLRSSEMKGQNAKFLDAFITAKHVTRTISVIGQHSPEGTETKNTNLANERSVVIEKYVKARMKHFKQDSLVNTIQFVTKGDIKDFEPMKAEIAKSTKLTPEQKSELLNIIAGSGDFTSKQQQIEKLPYYNKSVLAQLYPSLRTARTEIWTVKPKKTDAQISLLAGQITSGKVSVDTLSVEELGYAGTLTPILSEKAAIYEALAKKTDNWVAYNNLGAVYVEMAKVEVDQNKKTELVNKAINTLEMSIKKQDNGEAHVNLASAYILSGVKTSARDEANKAVASNASDAVKKGANGILGTVDIKDGKYELALQDFSKSNDSIQVKFNTALASLLKKDFNTAKAGFANYTAAAPNDAAGFYLAAVTAARLKDEATLTTNLKKAKQLSPKFGERAVSDMEFYDYWNSDNFKNALK
- protein production: failed

Sequence: MINDALKPYLEEKIESAKKTVPSFALEELKQKIISSPIQFGKSDIDDLVANLLKRYEQTKENSLIGKIDSIFKEISDMEKVMSGKAAEPAQPAEKPKKKAKLEAIGDDVVSIMVSLRWLEFLLDNYGPENTLDVLDYYESLGWISSTVKEQMMKYAKMTGVMNPAQEYKIKPSIQDHIINMLFIEKLRGEEINRDLIEALEREFRTIRKGVDELYGI
- protein production: failed

Sequence: MINLWKNGYDMVYGIRNRTTESWLKRVLTQAYYRILNLSSPIDIPESAGDFRLLDAKVVEAIKQLPEKNRYMKGLYAWVGFKSIGINFSEQERQHGHSSFNLKSLFNLAMSGLTGFSDLPLRVCIYLGAILALGAMSYGVWIIIKTLIEGISIPGWATLAAGMTLLGGIQLLFIGILGEYIGRIYAEVKNRPKYIISTEHSRTKQEHSIAHQENTFSSF
- protein production: failed

Sequence: MINPKVITRILANTDLKTKMRLAKVVPKLGKSDDVTKCMLCPNMCLHVCPVFDAERRLTVSPSVKSRLAYLGETEEAIYHCLPCDACKNACPMDISVNDNLRGYRGGERAMKAIERFEKSMRKVEVEPRDGKILYFPGCSTFESGLFDVTVEVLEKLGVDFAVKNLECCGMPYYELGLVDKFRGKISSLKDAAAKYEGVISNCPHCVHVMRENGIKAAHLLAVLKPVKIGGDVSYHDPCILARKLDIVEEPRRLLAEMGFVVHEPVFNGKDTHCCGYGGVYRFVVPEMAEKVAERRMEHFEHQIVTLCPSCRMALKAKDIVEIIAEGL
- protein production: failed

Sequence: MINSFKSVFLTIRYFIQNDLATQASALTYRTILSIVPMLAVLIGIAKGFGIQQVVHDWLKEYLPGHQQELEQALGYVENYLAQVQGGIFVGVGLIVLLYTVFSLIATVEDTFTDIWQTNKRRTWKRRVIDYMGAFFLLPILITASSGLTLMMTTIKGTYFSEYILFGPMLELILNLIPYVIIVLLFTGMYIVLPTVNVRFWPAFISGVLAGIVFQIFQALYISGILWISKYNAIYGSFAAVPLLLLWIQLSWTIVLFGAQLSFSIQNVRKFAFERDTTNVSRRYIDFITIVVASLIVKRFISDERRPHTADSLAEESKAPIRLVSEAIHRLLSIEAITEVNYAHDPKAEFFSPAIDPEKITVGFILDRIDRYGSEHFKVDNKVRFAPEWQAIEDSRQSLHIPPADTLLKNL
- protein production: failed

Sequence: MINTMTLDNGVRIITEKMSTVRSVSIGIWVGTGSRYESAEENGISHFLEHMFFKGTNTRSAQEIAEFFDSIGGQVNAFTSKEYTCYYAKVLDDHAGQAIDTLSDMFFHSTFQKEELEKERKVVFEEIKMVDDTPDDIVHDLLSSATYGKHSLGYPILGTVETLNSFNEGMLRHYMDRFYTGDYVVISVAGNVHDELIDKIKETFSQVKPTTYNYQGEKPMFLPNRIVRKKETEQAHLCLGYPGLPIGDKDVYALVLLNNVLGGSMSSRLFQDIREKRGLCYSVFSYHSSFRDSGMLTIYAGTGHDQLDDLVYSIQETTSALAEKGLTEKELENGKEQLKGSLMLSLESTNSRMSRNGKNELLLKKHRSLDEMIEQINAVQKQDVSRLAKILLSASPSISLINANGELPKALIH
- protein production: failed

Reference: a protein production outcome set (Wang et al. 2014)
